# Data published in patent US20240141072A1 (published 2024).
# Positions count from the first letter of the chain named.
# T1: biotinylated human DLL3 protein expressed as a human IgG1 fusion protein (human, UniProt Q9NYJ7 27-492, limits assumed, biotinylated)
# T1 sequence: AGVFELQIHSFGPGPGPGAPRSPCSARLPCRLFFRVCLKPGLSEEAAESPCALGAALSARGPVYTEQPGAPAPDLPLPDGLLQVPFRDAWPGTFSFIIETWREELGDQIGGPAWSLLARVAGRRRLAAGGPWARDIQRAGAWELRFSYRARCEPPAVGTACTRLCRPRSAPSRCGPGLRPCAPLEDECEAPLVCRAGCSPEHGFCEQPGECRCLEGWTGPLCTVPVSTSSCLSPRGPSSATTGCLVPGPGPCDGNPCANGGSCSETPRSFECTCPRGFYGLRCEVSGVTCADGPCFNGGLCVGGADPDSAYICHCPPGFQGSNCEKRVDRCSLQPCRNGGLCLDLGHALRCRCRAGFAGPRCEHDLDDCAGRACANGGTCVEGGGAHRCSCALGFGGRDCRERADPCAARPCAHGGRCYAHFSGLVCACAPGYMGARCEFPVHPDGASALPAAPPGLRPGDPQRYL
# B1: 4A05 anti-DLL3 trispecific protein (other)
# chain: EVQLVESGGGLVQPGGSLTLSCAASGSSVSFLSLAWYRQAPGKKRELVAGISADGSTDYIDSVKGRFTISRDNAKNSVYLQMNSLRAEDTAVYYCYAYRWKTRRTYWGQGTLVTVSS
# notes: not shown: linker 1808, anti-albumin sdAb, linker 1808, anti-CD3 fragment, His6 1819
# B2: 4A011 anti-DLL3 trispecific protein (other)
# chain: B1 chain with S28K, L34M, D58T, R104Y
# notes: as for B1
# B3: 4E08 anti-DLL3 trispecific protein (other)
# chain: B1 chain with S30K, L34M, A53T, R99K, K101T, R104Y
# notes: as for B1
# B4: 4D03 anti-DLL3 trispecific protein (other)
# chain: B1 chain with S30R, L34M, D54T, K101T, T102R, R104Y
# notes: as for B1
# B5: 4D05 anti-DLL3 trispecific protein (other)
# chain: B1 chain with V29S, L34M, D58V, K101T
# notes: as for B1
# B6: 4A07 anti-DLL3 trispecific protein (other)
# chain: B1 chain with S28K, L34M, D58L, K101T, R104Y, T105R
# notes: as for B1
# B7: 4F010 anti-DLL3 trispecific protein (other)
# chain: B1 chain with L34M, A53I, D61K, K101T, R104Y, T105R
# notes: as for B1
# B8: 4B09 anti-DLL3 trispecific protein (other)
# chain: B1 chain with L34M, D61S, R99S, K101T, R104Y
# notes: as for B1
# B9: 4B06 anti-DLL3 trispecific protein (other)
# chain: B1 chain with S28R, L34M, I60F, K101T, T102R, R104Y
# notes: as for B1
# B10: 4B04 anti-DLL3 trispecific protein (other)
# chain: B1 chain with S30L, L34M, I51V, A53S, K101R, R104Y
# notes: as for B1
# B11: 4C08 anti-DLL3 trispecific protein (other)
# chain: B1 chain with A23V, S28Q, L34M, I60F, K101T, T102R, R104Y
# notes: as for B1
# B12: 4D04 anti-DLL3 trispecific protein (other)
# chain: B1 chain with L34I, A53K, K101T, R104M
# notes: as for B1
# B13: 4C011 anti-DLL3 trispecific protein (other)
# chain: B1 chain with S28R, L34M, D58V, K101T, T102R, R104Y
# notes: as for B1
# B14: 4C03 anti-DLL3 trispecific protein (other)
# chain: B1 chain with S28K, L32M, L34M, A53V, K101R, R104Y
# notes: as for B1
# B15: 4C010 anti-DLL3 trispecific protein (other)
# chain: B1 chain with S28K, L32M, L34M, K101T, R104L
# notes: as for B1
# B16: 4E09 anti-DLL3 trispecific protein (other)
# chain: B1 chain with L34S, D58L, K101T, R104S
# notes: as for B1
# B17: 4E01 anti-DLL3 trispecific protein (other)
# chain: B1 chain with L34V, A53R, K101R, R104Y
# notes: as for B1
# B18: 4F04 anti-DLL3 trispecific protein (other)
# chain: B1 chain with G26R, L34M, A53T, K101L, R104Y
# notes: as for B1
# B19: 4E07 anti-DLL3 trispecific protein (other)
# chain: B1 chain with S28R, L34M, D58M, K101T, R104L
# notes: as for B1
# B20: 4D08 anti-DLL3 trispecific protein (other)
# chain: B1 chain with S30N, L34M, D58H, K101L, R104Y
# notes: as for B1
# B21: 4F011 anti-DLL3 trispecific protein (other)
# chain: B1 chain with S28K, L34M, T57K, K101T, R104Y
# notes: as for B1
# B22: 4A09 anti-DLL3 trispecific protein (other)
# chain: B1 chain with S30K, L34M, D61G, K101T, R104V
# notes: as for B1
# B23: 4C02 anti-DLL3 trispecific protein (other)
# chain: B1 chain with S28K, L34M, D58T, K101T, R104F
# notes: as for B1
# B24: 4B01 anti-DLL3 trispecific protein (other)
# chain: B1 chain with S30K, L34M, A53R, K101T, R104F
# notes: as for B1
# B25: 4E06 anti-DLL3 trispecific protein (other)
# chain: B1 chain with S27T, L34M, D61R, K101T, R104L
# notes: as for B1
# B26: 4C07 anti-DLL3 trispecific protein (other)
# chain: B1 chain with S28K, L34M, T57K, K101T, R104L
# notes: as for B1
# B27: 4E010 anti-DLL3 trispecific protein (other)
# chain: B1 chain with S30K, L34M, K101R, R104Y
# notes: as for B1
# B28: 4F03 anti-DLL3 trispecific protein (other)
# chain: B1 chain with S30Q, L34M, A53Y, K101R, R104Y
# notes: as for B1
# B29: 4B02 anti-DLL3 trispecific protein (other)
# chain: B1 chain with S28R, L34M, D58T, K101T, R104F
# notes: as for B1
# B30: 4D02 anti-DLL3 trispecific protein (other)
# chain: B1 chain with S28K, L34M, D54R, R99Q, K101T, R104Y
# notes: as for B1
# B31: 4C01 anti-DLL3 trispecific protein (other)
# chain: B1 chain with S30R, L34M, D58V, R104Y
# notes: as for B1
# B32: 4B08 anti-DLL3 trispecific protein (other)
# chain: B1 chain with L32M, L34M, D61A, K101T, R104S
# notes: as for B1
# B33: 4E011 anti-DLL3 trispecific protein (other)
# chain: B1 chain with L34M, D54T, K101S, R104Y
# notes: as for B1
# B34: 4D06 anti-DLL3 trispecific protein (other)
# chain: B1 chain with S30K, L34M, A53P, K101T, R104Y, T105R
# notes: as for B1
# B35: 4A08 anti-DLL3 trispecific protein (other)
# chain: B1 chain with L34M, D58N, K101R, R104Y
# notes: as for B1
# B36: 4F09 anti-DLL3 trispecific protein (other)
# chain: B1 chain with S28R, L34M, D61E, K101T, R104Y
# notes: as for B1
# B37: 4F02 anti-DLL3 trispecific protein (other)
# chain: B1 chain with S28T, L34M, A53H, K101T, R104Y
# notes: as for B1
# B38: 4F08 anti-DLL3 trispecific protein (other)
# chain: B1 chain with S28K, L34M, D58A, K101R, R104Y
# notes: as for B1
# B39: 4D010 anti-DLL3 trispecific protein (other)
# chain: B1 chain with L34M, D61H, K101R, R104Y
# notes: as for B1
# B40: 4C05 anti-DLL3 trispecific protein (other)
# chain: B1 chain with F31N, L34M, D58A, K101T
# notes: as for B1
# B41: 4D01 anti-DLL3 trispecific protein (other)
# chain: B1 chain with S30R, L34M, D58V, K101T
# notes: as for B1
# B42: 4B05 anti-DLL3 trispecific protein (other)
# chain: B1 chain with S28R, L34M, S56H, K101T, R104Y, Y106H
# notes: as for B1
# B43: 4A06 anti-DLL3 trispecific protein (other)
# chain: B1 chain with S30R, L34M, A53R, K101T
# notes: as for B1
# B44: 4G01 anti-DLL3 trispecific protein (other)
# chain: B1 chain with S30R, L34M, D58V, K101P, R104Y
# notes: as for B1
# B45: 4A010 anti-DLL3 trispecific protein (other)
# chain: B1 chain with S30R, L34M, D58V, K101T, R104Y, T105K
# notes: as for B1
# Biological target: T1, biotinylated human DLL3 protein …
# Assay: Octet BLI, single 50 nM
# How it was run: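 Read-out is binding affinity to human DLL3. Conditioned medium containing a known amount of each trispecific protein was run against the immobilised biotinylated DLL3 fusion.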
row,Kd,Binder
1,9.4 nM,B1
2,5.6 nM,B2
3,7.2 nM,B3
4,26 nM,B4
5,6.5 nM,B5
6,9.8 nM,B6
7,5.8 nM,B7
8,5.4 nM,B8
9,16 nM,B9
10,12 nM,B10
11,16 nM,B11
12,8.6 nM,B12
13,6 nM,B13
14,6.6 nM,B14
15,7 nM,B15
16,9.1 nM,B16
17,11 nM,B17
18,9.8 nM,B18
19,11 nM,B19
20,5.9 nM,B20
21,8.2 nM,B21
22,9 nM,B22
23,6.8 nM,B23

row,Kd,Binder
1,11 nM,B24
2,10 nM,B25
3,7.5 nM,B26
4,9 nM,B27
5,12 nM,B28
6,7.1 nM,B29
7,30 nM,B30
8,5.1 nM,B31
9,10 nM,B32
10,13 nM,B33
11,7.5 nM,B34
12,24 nM,B35
13,8.8 nM,B36
14,15 nM,B37
15,9 nM,B38
16,9.9 nM,B39
17,8.3 nM,B40
18,3.7 nM,B41
19,18 nM,B42
20,13 nM,B43
21,3.6 nM,B44
22,2.3 nM,B45
